Assay results from patent publication US20260258115A1.

Legend:
[1] = target: RSV prefusion F (preF), DS-Cav1 (Respiratory Syncytial Virus); test: BLI, IgG on anti-human IgG sensor, 100 nM antigen
[2] = target: Respiratory Syncytial Virus fusion glycoprotein (RSV F) on RSV-A2 virus (Respiratory Syncytial Virus subtype A (RSV-A2)); test: cell-based or functional assay
[3] = target: RSV prefusion F (preF, DS-Cav1) (Respiratory syncytial virus); test: BLI, IgG on sensor, 100 nM antigen

Binder | Kd [1] [nM] | Neutralization IC50 (RSV subtype A) [2] [µg/mL] | Kd [3] [nM]
ADI-36680 (antibody, V domains shown) VH: QVTLKESGAELRKPGESLKISCKASGYRFTNYWIGWVRQMPGKGLEWMGVIYPGDSDTKYSPSFQGQVTMSADKSINTAYLQWSSLKASDTAIYYCVSLFGDYDYGALDYWGQGTLVTVSS VL: ETTLTQSPATLSMSPGERATLSCRASQSVGRNLAWYQQKPGQAPRLLIYGASIRATGILARFSGSGSGTEYTLTISSLQPEDFAVYYCQQYHDWPSFTFGPGTKVDIK | 0.719 | 0.01 | –
ADI-36679 (antibody, V domains shown) VH: QVQLVQSGAEVKKPGESLKISCKGSGYSFRSYWIAWVRQMPGKGLEWMGTIFPGDSDVTYSPSFQGQVTISVDKSTSTAYLQWGSLKASDTAIYYCARRYDYIDFWGQGTLVTVSS VL: DIQMTQSPSSLSASVGDRVTITCQASQDIINHLNWYQQKPGKAPKLLIYDASNLHPGVPSRFSGSGSGTYFTFTISSLQPDDFATYYCQQYDFLAHITFGPGTKVDIK | 0.878 | 0.01 | –
ADI-41317 (antibody, V domains shown) VH: EVQLVESGGGLVQPGGSLRLSCEASRFKFSTFWMAWVRQAPGKGLEWVANIKQDGSETYYLDSVKGRFTISRDNAKNSLFLQMKSLRAEDTAVYYCAGLWWGDLENWFDPWGQGTLVTVSS VL: QSVLTQPPSVSGAPGQRVTISCTGSSSNLGTGFDVHWYRQLPGTAPQLLIYGSTNRPSGVPDRFSGSKYGTSASLAITGLQAEDEADYYCQSYDSNLRAYVFGTVTKVTVL | – | – | 48.2
ADI-36681 (antibody, V domains shown) VH: EVQLVESGAEVKKPGESLKISCKASGYSFTRYWIGWVRQMPGKGLEWMGIIFPGDSDTRYCPSFEGQVTISADRSINTAYLQWSSLKASDSAMYYCVTLYTDYDYGAPDHWGQGTLVTVSS VL: DIVLTQSPATLSVSPGERATLSCRASQSLSGDLAWYQQKPGQAPRLLIYATSTRATGIPARFSGSGSGAEFTLTISSLQSEDFAVYYCQQYYDWPLLTFGPGTKVEIK | 1.2 | 0.01 | –
ADI-41343 (antibody, V domains shown) VH: EVQLVESGGGLVKPGGSLRLSCAASGFTFSSYYMNWVRQAPGKGLEWVSSISGGSSYISYADSVKGRFTISRDNAKNSLYLQMNSLRAEDTAVYYCARVDTPMVRGYYFDYWGQGTLVTVSS VL: QSVLTQPPSVSGAPGRRVTISCTGSSSNIGAGYDVHWYQQLPGTAPKLLIFANSNRPSGVPDRFSGSKSGTSASLAITGLQAEDEADYYCQSYDSSLSGSVFGGGTKVTVL | – | – | 0.721
ADI-41288 (antibody, V domains shown) VH: EVQLVESGGGLVQPGGSLRLSCAASGFTFSSYAMSWVRQAAGKGLEWVSAISGSGDDTFYADSVKDRFIISRDSSKRKVYLQMNSLRVEDTAVYYCAKTDIMVTFGGVVVDAYYFDHWGQGTLVTVSS VL: ETTLTQSPGTLSLSPGERATLSCRASQFVFRSYLAWYQQRPGQPPRLLIYGASSRATGIPDRFSGRGSGTEFTLTISRLEPEDFAMYYCQHYDSSPPGTFGGGTKVEIK | – | – | 8.99
ADI-36671 (antibody, V domains shown) VH: EVQLLESGGGLVKPGGSLRLSCAASGFTFSGYYMTWIRQAPEKGLEWVSYISGGSTYTNYADSVRGRFTISRDNARNSLYLQMNSLRAEDTAVYYCARDGGYGIGPLYWGQGSLVTVSS VL: QPVLTQPPSVSGAPGQRVTISCTGSSSNIGAPFDVHWYQQLPGTAPKPLIYGNSNRPSGVPDRFSGSKSGTSASLAITGLQAEDEADYYCQSYDSSLGGYVFGTGTKLTVL | 0.728 | 0.01 | –
ADI-41296 (antibody, V domains shown) VH: EVQLVESGVEVKKPGESLKISCRGSGYTFYNYWIAWVRQKPGKGLEYMGTIYLDDSETIYSPSFQGEVTISADKSINTAYLQWNSLKASDTANYYCARQMDFYFDVWGRGTLVTVSS VL: SYELMQPPSVSVSPGQTARITCSGDPLPRESAYWYQQKPGQAPVVIIFNDIERPLGIPERFSGSRSGTTVTLTISGAQAEDEADYYCQSADSRKTFVFGTGTKLTVL | – | – | 3.35
ADI-41320 (antibody, V domains shown) VH: QVQLVQSGVEVKKPGESLKISCRGFGYSAYNYWIAWVRQKPGKGLEYMGTIYLDDSDTIYSPSFQGEVTISADRSINTAYLQWNSLKASDTANYYCARQMDFYFDVWGRGTLVTVSS VL: QSVLTQPPSVSVSPGQTARITCSGDPLPRESAYWYQQKPGQAPVVVIFNDIERPLGIPARFSGSRSGTTVTLTISGAQAEDEADYYCQSADSRKTFVFGPGTKLTVL | – | – | 3.2
ADI-41310 (antibody, V domains shown) VH: QVQLVQSGVEVKKPGESLKISCRGSGYSFYNYWIAWVRQKPGKGLEYMGTIYLDDSDTIYSPSFQGEVTISADKSINTAYLQWNSLKASDTANYYCARQMDFYFDVWGRGTLVTVSS VL: SYELTQPPSVSVSPGQTARITCSGDPLPRESAYWYQQKPGQAPVVVIFNDIERPLGIPGRFSGSRSGATATLTINGAQAEDEADYYCQSADSRKTFVFGAGTKLTVL | – | – | 3.32
ADI-41322 (antibody, V domains shown) VH: QVQLVQSGAEVKKPGSSVRVSCKASGGSFSSYATSWVRQAPGQGLEWMGGIIPMYDAVNYAQKFQGRVTITADESTTTAYMELSSLRSEDTAVYYCARSSGYTGTNFFDYWGQGTLVTVSS VL: DIQMTQSPSSVSASVGDRVTITCRASQDISSWLAWYQQKPGKAPKLLIYTASSLQSGVPSRFSGSGSGTDFTLTISRLQPEDFATYYCQQANSFPRVTFGGGTKVEIK | – | – | 2.98
ADI-41147 (antibody, V domains shown) VH: EVQLVESGGGLVKPGGSLRLSCAASGFTLSGYYMSWVRQAPGKGLEWISYISGGSTYTNYADSVNGRFTISRDNAKNSLYLQMDSLRAEDTAVYYCARLEYGDYGPYYLGLWGRGTLVTVSS VL: QSVLTQPPSVSGAPGQRVTISCTGTSSNIGAGYDVHWYQKLPGTAPKLLIYANNNRPSGVPDRFSGSKSGTSASLAITGLQAEDEADYYCQSYDTSLSAHYVFGTGTKLTVL | 0.467 | 0.06 | –
ADI-41294 (antibody, V domains shown) VH: EVQLLESGGGLVQPGGSLRLSCAASGFTFSAYEMNWVRQAPGKGLEWVSYISSSGSNKHYADSVKGRFTISRDNAKNSLHLHMNSLRAEDTALYYCTRPHQEEWELLPNDAFDLWGQGTMVTVSS VL: QSALTQPPSASGSPGQSVTISCTGTSTDVGAYTYVSWYQQHPGKAPKLIIYEVYKRPSGVPNRFFGSKSGNTASLTVSGLQAEDEADYYCSSYGGSNNFGLFGGGTKLIVL | – | – | 0.512
ADI-41266 (antibody, V domains shown) VH: QVQLQQSGPGLVKPSQTLSLTCAISGDSVSSNSAAWNWIRQSPSRGLEWLGRTYYRSKWYNDYAVSVKSRITINPDTSKNQFSLQLNSVTPEDTAVYYCARDLPQVDYFDGASFYFFDFWGQGTLVTVSS VL: QPVLTQPPSVSVAPGQTASITCGGNIIGNKGVHWYQQKPGRAPVLVVYDDSDRPSGIPERFSGSNSGNTATLTISRVEAADEADYYCQVWDTGSHPVVFGGGTKVTVL | – | – | 4.06
ADI-41165 (antibody, V domains shown) VH: EVQLVETGAEVKKPGESLKISCKGSGYSFTSYWIGWVRQMPGKGLEWMGIIYPGDSDTRYSPSFQGQVTISADKSISTAYLQWSSLKASDTAMYYCARRYDYIDIWGQGTMVTVSS VL: DIRVTQSPSSLSASVGDRVTITCQASQDISNYLNWYQQKPGKAPKLLIYDASNLETGVPSRFSGSGSGTDFTFTISSLQPEDIATYYCQQYDNLAHITFGPGTKVEIK | 2.4 | > 25 | –
ADI-41349 (antibody, V domains shown) VH: EVQLLESGGGLVQPGRSLRLSCTGSGFTFGDYAMNWVRQAPGKGLEWVGLIRSKDYGGTTEFAASLKGRLTISRDDSKSIAYLQMHSLKTEDSAVYYCTRAHLTDYTDINGYQYYFDYWGQGSPVTVSS VL: DIQMTQSPSSLSASVGDRVTITCQASQDISNFLNWYQQRPGKAPKLLIHDASNLETGVPSRFSGSGSRTEFTFTISSLQPEDIGTYYCQHYDNFPYTFGQGTKVEIK | – | – | 6.25
ADI-41168 (antibody, V domains shown) VH: EVQLVETGGGVVQPGRSLRLSCAASGFTFSSYGMHWVRQAPGKGLEWVAVISYDGSNKYYADSVKGRFTISRDNSKNTLYLQMNSLRTEDTAVYYCAKGGGYYYYYMDVWGKGTTVTVSS VL: QPVLTQPASVSGSPGQSITISCTGTSSDVGGYNYVSWYQQHPGKAPKLMIYGVNNRPSGVSNRFSGSKSGNTASLTISGLQGEDEADYYCNSYRSGITVVFGGGTKLTVL | 133 | > 25 | –
ADI-41340 (antibody, V domains shown) VH: QVQLVQSGAEVKTPGSSVKVSCKASGGTFRSYPITWVRQAPGQGLEWMGTVIPVFDTVNYAPKFQGRVSITADESTNTAYMELSSLRSDDSAVYYCARDLGWLRPMTTVTSPHFDYWGQGTLVTVSS VL: QSVLTQPASVSGSPGQSITISCTGTSSDVGGYDFVSWYQQHPGKAPKLMISEVTDRPSGVSNRFSGSKSGNTASLTISGLQAEDEADYYCTSYTSSRTYVFGTGTKLTVL | – | – | 3.51
ADI-41157 (antibody, V domains shown) VH: EVQLVESGPGLVKPSETLSLTCTVSGGSISTYYWSWIRQPPGKGLEWIGYIYYTGSTNYNPSLKSRVTISLDTSKNQFSLKLSSVSAADTAFYYCARSPPVPGTRSWFDPWGQGTLVTVSS VL: SPGLTQPQSAFGTPGQRVTISCFGSSSNIGRNHIYWYQQVPGTAPKLLIYRNNQRPSGVPDRFFGSKFGTSASLAISGVRSEDEADYFCAAWDDSLSGPVFGGGTKLTVL | 0.507 | 0.22 | –
ADI-41268 (antibody, V domains shown) VH: EVQLVESGGGLVKPGGSLRLSCVASGFGFTSYSMNWVRQAPGKGLEWVSSISASSTYIHYADSVKGRFTISRDNARNSLYLQMISLRADDTAVYYCSRDGPTYGSGVHVWGQGTMVTVSS VL: QSALIQPVSVSGSPGQSITISCTGTRSDVGGYNYVSWYQQHPGKAPKLMIYEVRNRPSGVSDRFSGSKSGNTASLTISGLQAEDEGDYYCSSYTSSDTLFYVFGSGTKLTVL | – | – | 0.581
ADI-41258 (antibody, V domains shown) VH: QVQLVQSGGGLVQRGGSLRLSCAASGFSFRSYAMSWVRQAPGKGLEWVSSISDSGDNTFYADSVKGRFSISRDNSRDTLYLQMNSLRAEDTAVYYCARGGYCSGGNCFPFDYWGQGTLVTVSS VL: SYELMQLPSVSVSPGQTARITCSGDALPKQYGYWYQQKPGQAPVLVIYKDSERPSGIPERFSGSSSGTTVTLTISGVQAEDEADYYCQSADSGGTYVMFGGGTKLTVL | – | – | 0.968
